According to paper doi:10.1101/2025.06.23.660979:
Blank lines part the entries; values can stand above or below the substance they belong to.

Legend:
[1] = molecular target: BcLmuA K59A, nuclease-dead BcLmuA of the BcLmuA(K59A)B complex (Bacillus cellulasensis NIO-1130); test: cryo-EM structure
[2] = molecular target: VcLmuA, LmuA of the type II Lamassu system from Vibrio cholerae O1 El (Vibrio cholerae O1 El); test: cryo-EM structure
[3] = molecular target: VcLmuA, LmuA of the type II Lamassu system from Vibrio cholerae O1 El (Vibrio cholerae O1 El); test: SEC-MALS

stoichiometry N [1]: 4
Substance: BcLmuA K59A, nuclease-dead BcLmuA of the BcLmuA(K59A)B complex (natural protein)

Substance: VcLmuA, LmuA of the type II Lamassu system from Vibrio cholerae O1 El (natural protein)
stoichiometry N [2]: 4

Substance: VcLmuC, LmuC of the type II Lamassu system from Vibrio cholerae O1 El (natural protein)
stoichiometry N (VcLmuC per VcLmuA) [2]: 1 | stoichiometry N (LmuC per LmuA) [3]: 1
